Legend:
[1] = target: HCV E1E2 complex, isolate H77 (genotype 1a) (hepatitis C virus genotype 1a, isolate …, UniProt P27958 192-383; P27958 384-746); experiment: Fab screen after panning on E1E2 (H77)
[2] = target: HCV E1E2 antigen, isolate UKN1B12.16 (hepatitis C virus, isolate UKN1B12.16); experiment: ELISA, Fab on E1E2 antigen
[3] = target: HCV E1E2 antigen, isolate OH8 (hepatitis C virus, isolate OH8); experiment: ELISA, Fab on E1E2 antigen
[4] = target: HCV E1E2 antigen, isolate CH35 (hepatitis C virus, isolate CH35); experiment: ELISA, Fab on E1E2 antigen
[5] = target: HCV E1E2 antigen, isolate J6E3 (hepatitis C virus, isolate J6E3, UniProt P26660 192-383; P26660 384-750); experiment: ELISA, Fab on E1E2 antigen
[6] = target: T1, HCV E1E2 antigen, isolate JFH (hepatitis C virus, isolate JFH, UniProt Q99IB8 192-383; Q99IB8 384-750); experiment: ELISA, Fab on E1E2 antigen
T1 construct: also called JFH-1

[7] = target: HCV E1E2 antigen, isolate UKN2B1.1 (hepatitis C virus, isolate UKN2B1.1); experiment: ELISA, Fab on E1E2 antigen
[8] = target: HCV E1E2 antigen, isolate UKN3A1.28c (hepatitis C virus, isolate UKN3A1.28c); experiment: ELISA, Fab on E1E2 antigen
[9] = target: HCV E1E2 antigen, isolate UKN4.21.16 (hepatitis C virus, isolate UKN4.21.16); experiment: ELISA, Fab on E1E2 antigen
[10] = target: HCV E1E2 antigen, isolate UKN5.15.7 (hepatitis C virus, isolate UKN5.15.7); experiment: ELISA, Fab on E1E2 antigen
[11] = target: HCV E1E2 antigen, isolate UKN6.5.8 (hepatitis C virus, isolate UKN6.5.8); experiment: ELISA, Fab on E1E2 antigen

B1: Fab L6 (Fab, V domains shown)
VH: VQLLEQSGTEVKKPGSSVKVSCKVPGDTFRSYVITWVRQSPGQGLEWLGGILPFFGTTNLAQKFQGRVTLTADESTTTAYMELSSLRSEDTAVYYCAKAGDLAFGGVIAGGVPHLSHFDPWGQGTLVTVSA
VL: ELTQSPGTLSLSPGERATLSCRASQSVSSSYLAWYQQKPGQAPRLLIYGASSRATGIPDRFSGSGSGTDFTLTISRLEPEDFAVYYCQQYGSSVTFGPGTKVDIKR
[1]
  binding result: binds

B2: Fab J5 (Fab, V domains shown)
VH: VQLLEQSGAEVKKPGSSVTVSCKASGGTVSSYPITWVRQAPGQGLEWMGGTIPVFGAPKYAPKFQGRVTITADESTSTAYMELRSLRSDDTAMYYCAIVGMRGITLVGGLAMNWLDPWGQGTLVIVSS
VL: ELTQSPGTLSLSPGERATLSCRASQSVSSNYLAWYQQKPGQAPRLLIYGASSRATGIPDRFSGSGSGTDFTLSISRLEPEDFAVYYCQQYGSSPLTFGGGTKVEIKR
[1]
  binding result: binds

B3: Fab S2 (Fab, V domains shown)
VH: VQLLEQSGAEVKKPGASVKVSCTASGYIFTSFGISWVRQAPGQGLEWMGRIDTYNGKTNYAQKLQGRVTMTTDTYTSTAYMELRSLTSDDTAVYYCARDDCRSSTCYLAQHNWQAYYHDSWGQGTLVTVSS
VL: ELTQSPATLSLSPGERATLSCRASQSVSSRFLAWYQQKPGQAPRLLIYGASSRATGIPDRFSGSGSGTDFTLTISRLEPEDFAVYYCQQYGSSPQTFGQGTKVEIKR
[1]
  binding result: binds

B4: Fab L5 (Fab, V domains shown)
VH: VQLLEQSGTEVKKPGSSVKVSCKVPGDTFRSYVITWVRQAPGQGLEWLGGILPFFGTTNLAQKFQGRVTLTADESTTTAYMELSSLRAEDTAVYYCAKAGDLAFGGVIAGGVPHLSHFDPWGQGTLVTVSS
VL: ELTQSPGTLSLSPGERATLSCRASQSVRSNYLAWYQQKPGQAPRLLIYGASSRATGIPDRFSGSGSGTDFTLTISRLEPEDFAMYYCQQYGSSMCSFGQGTKVEIKR
[1]
  binding result: binds

B5: Fab S1 (Fab, V domains shown)
VH: VQLLEQSGAEVKKPGTSVKVSCTASGYIFTSFGISWVRQAPGQGLEWMGRIDTYNGKTNYAQKLQGRVTMTTDTYTSTAYMELRSLTSDDTAVYYCARDDCRSSTCYLAQHNWQAYYHDSWGQGTLVTVSS
VL: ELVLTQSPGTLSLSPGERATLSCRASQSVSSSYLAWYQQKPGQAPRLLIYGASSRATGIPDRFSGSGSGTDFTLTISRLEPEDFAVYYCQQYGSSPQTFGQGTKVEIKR
[2]
  OD 450 nm: 0.26 OD 450 nm
[3]
  OD 450 nm: 1.32 OD 450 nm
[4]
  OD 450 nm: 0.79 OD 450 nm
[5]
  OD 450 nm: 0.07 OD 450 nm
[6]
  OD 450 nm: 0.21 OD 450 nm
[7]
  OD 450 nm: 0.03 OD 450 nm
[8]
  OD 450 nm: 0.55 OD 450 nm
[9]
  OD 450 nm: 1.12 OD 450 nm
[10]
  OD 450 nm: 0.18 OD 450 nm
[11]
  OD 450 nm: 0.08 OD 450 nm

B6: Fab B5 (Fab, V domains shown)
VH: EVQLLESGAEVKKPGSSVKVSCRASGSPYSSYTITWVRQAPGQGLEWMGGIILMTGKANYAQKFQGRVTITADRATATAYMEMSSLTSDDTAIYYCARDPYVYAGDDVWSLSRWGQGTPVIVSS
VL: ELTQSPLSLPVIIGQPASISCSSSESLVDSDGNTYLHWFQQRPGQSPRRLIYKVSNRDAGVPDRFSGSGSGTDFTLKISRVEAEDVAVYYCMQATHWPPITFGPGTRLEVKR
[1]
  binding result: binds

B7: Fab T1 (Fab, V domains shown)
VH: EVQLLESGGGLVQPGGSLRLSCAASGFTFSRFWMHWVRQAPGKGLVWVARINSDGSSTTYADSVKGRFTISRDNAKNTLYLQMNSLRDEDTAVYFCARGGDSSSPYYYPMDVWGQGTTVAVSS
VL: not shown
[2]
  OD 450 nm: 0 OD 450 nm
[3]
  OD 450 nm: 0.15 OD 450 nm
[4]
  OD 450 nm: 0 OD 450 nm
[5]
  OD 450 nm: 0 OD 450 nm
[6]
  OD 450 nm: 0 OD 450 nm
[7]
  OD 450 nm: 0 OD 450 nm
[8]
  OD 450 nm: 0 OD 450 nm
[9]
  OD 450 nm: 0.08 OD 450 nm
[10]
  OD 450 nm: 0.07 OD 450 nm
[11]
  OD 450 nm: 0.01 OD 450 nm

B8: Fab R1 (Fab, V domains shown)
VH: VQLLEQSGAEVKKPGASVKVSCKASGYTFSIYGVAWVRQAPGQGLEWMGWISPQNGDTHSPQKFQGRLTMTTDTSTSTAYMELRSLRSDDTAVYFCARDYGVNFGGGSEHNLDYWGRGTRVTVSS
VL: ELTQSPLSLPVTPGEPASISCRSSYSLLHINGYKYLDWYLQRPGQSPQLLIYLGSNRAPGVPDRFSGSGSGTSFTLKISRVEAEDVGVYYCMQSLQAPWTFGQGTKVEMKR
[2]
  OD 450 nm: 0.03 OD 450 nm
[3]
  OD 450 nm: 0.5 OD 450 nm
[4]
  OD 450 nm: 0.15 OD 450 nm
[5]
  OD 450 nm: 0 OD 450 nm
[6]
  OD 450 nm: 0 OD 450 nm
[7]
  OD 450 nm: 0.02 OD 450 nm
[8]
  OD 450 nm: 0 OD 450 nm
[9]
  OD 450 nm: 0.01 OD 450 nm
[10]
  OD 450 nm: 0 OD 450 nm
[11]
  OD 450 nm: 0.05 OD 450 nm

B9: Fab E2 (antibody clone, not the glycoprotein) (Fab, V domains shown)
VH: VGLLEQSGAELKKPGSSVKVSCKPSDGTFRAYTLSWVRQAPGQTLEWLGRIMPTVGITNYAQKFQGRVTISADMSTATAYMQLSSLRPDDTAIYYCAKGPYVGLGEGFSEWGQGTLVTVSS
VL: ELTQSPLSLPVTLGQPASISCRSSQSLVYSDGNTYLIWFQQRPGQSPRRLIYNVSNRDSGVPDRFSGSGSGTDFTLKISRVEAEDLGVYYCMQGAHWPPTFGQGTRLEIKG
[1]
  binding result: binds

B10: Fab E3 (Fab, V domains shown)
VH: VGLLEQSGAELKKPGSSVKVSCKPSDGTFRAYTLSWVRQAPGQALEWMGRIMPTVGITNYARKFQGRVTISADMSTATAYMELSSLRSDDTAIYYCAKGPYVGLGEGFSEWGQGTLVTVSS
VL: ELVLTQSPLSLPVTLGQPASISCRSTQSLVYSDGNTYLNWFHQRPGQPPRRLIYKVSNRDSGVPERFSGSGSGTDFALKISRVEADDVGIYYCMQGAHWPPTFGGGTKVEISR
[1]
  binding result: binds

B11: Fab B4 (Fab, V domains shown)
VH: VQLLEQSGAEVKKPGSSVKVSCRASGSPFSSYTITWVRQAPGQGLEWMGGIILMTGKANYAQKFQGRVTITADRSTTTAYMEMSSPTSDDTAIYYCARDPYVYAGDDVWSLSRWGQGTLVIVSP
VL: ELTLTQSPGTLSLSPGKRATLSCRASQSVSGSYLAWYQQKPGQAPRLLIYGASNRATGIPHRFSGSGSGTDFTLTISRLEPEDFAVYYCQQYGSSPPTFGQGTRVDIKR
[1]
  binding result: binds

B12: Fab B6a (Fab, V domains shown)
VH: VQLLEQSGAEVKKPGSSVKVSCRASGSPYSSYTITWVRQAPGQGLEWMGGIILMTGKANYAQKFQGRVTITADRATATAYMEMSSLTSDDTAIYYCARDPYVYAGDDVWSLSRWGQGTPVTVSS
VL: LTQSPGTLSLSPGERATLSCRASQSVASNYVAWYQQKPGQAPRLLIYGTSYRATGIPGRFSGSGSGTDFTLTISGLEPEDFAVYYCQQYGSSPQTFGQGTKVEIKR
[1]
  binding result: binds

B13: Fab B6b (Fab, V domains shown)
VH: VQLLEQSGAEVKKPGSSVKVSCRASGSPYSSYTITWVRQAPGQGLEWMGGIILMTGKANYAQKFQGRVTITADRATATAYMEMSSLTSDDTAIYYCARDPYVYAGDDVWSLSRWGQGTPVTVSS
VL: ELTQSPGTLSLSPGERATLSCRASQSVSRGNLAWYQQKRGQPPRLLIYGASYRATGIPDRFSGSGSGTDFTLTITKLEPEDFAVYYCQQYGHSLAFGQGTKVEIKG
[1]
  binding result: binds

B14: Fab B6c (Fab, V domains shown)
VH: VQLLEQSGAEVKKPGSSVKVSCRASGSPYSSYTITWVRQAPGQGLEWMGGIILMTGKANYAQKFQGRVTITADRATATAYMEMSSLTSDDTAIYYCARDPYVYAGDDVWSLSRWGQGTPVTVSS
VL: not shown
[1]
  binding result: binds

B15: Fab U1 (Fab, V domains shown)
VH: VQLLEQSGPEVKRPGTSVKMSCKISGGASITQAMSWVRQAPGQGLEWMGGITPIFGTVNYAQKILGRVTITADEDTVSLELSSLKSEDTAVYYCAREVNLKTWNLAHPNVFDVWGQGTMLTVSS
VL: ELTQSPSSLSASVGDRVTITCRASQSISSFLNWYQQKPGKAPKLLIYAASSLQSGVPPRFSGSGSGTDFTLTISSLQPEDFATYYCQQSYSTPRTFGQGTKLEIKR
[2]
  OD 450 nm: 0.11 OD 450 nm
[3]
  OD 450 nm: 0.26 OD 450 nm
[4]
  OD 450 nm: 0.07 OD 450 nm
[5]
  OD 450 nm: 0.08 OD 450 nm
[6]
  OD 450 nm: 0.07 OD 450 nm
[7]
  OD 450 nm: 0 OD 450 nm
[8]
  OD 450 nm: 0.11 OD 450 nm
[9]
  OD 450 nm: 0 OD 450 nm
[10]
  OD 450 nm: 0.06 OD 450 nm
[11]
  OD 450 nm: 0.06 OD 450 nm

Reference: patent US20110311550A1 (Scripps Research, published 2011)
